In PMC11508141 one finds stoichiometry N data, which are given here for one molecule.

The target in the test is T1, DJ-1 protein with the 6X-His tag, Q99497.
T1 chain: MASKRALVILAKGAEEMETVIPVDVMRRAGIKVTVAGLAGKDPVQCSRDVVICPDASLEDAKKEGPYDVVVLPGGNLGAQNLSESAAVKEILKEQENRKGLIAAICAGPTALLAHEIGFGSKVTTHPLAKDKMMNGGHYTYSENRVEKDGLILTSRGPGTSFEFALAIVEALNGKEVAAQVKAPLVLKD
Kind of test: cross-linking; purified DJ-1 treated with 25 mM DSS at 25 °C for 30 min, with or without P1 or P2, then SDS-PAGE (12% gel). Particulars: remark: other sources report otherwise.

B1: DJ-1 protein with the 6X-His tag, Q99497 1-189 (enzyme)
chain: T1 chain
The stoichiometry N is the number of molecules, sites or subunits per partner or assembly. Molecule B1 came in with a stoichiometry N of 2.
